T1: mCherry-Atg11 (yeast (S. cerevisiae), UniProt Q12527 1-1178)
T1 sequence: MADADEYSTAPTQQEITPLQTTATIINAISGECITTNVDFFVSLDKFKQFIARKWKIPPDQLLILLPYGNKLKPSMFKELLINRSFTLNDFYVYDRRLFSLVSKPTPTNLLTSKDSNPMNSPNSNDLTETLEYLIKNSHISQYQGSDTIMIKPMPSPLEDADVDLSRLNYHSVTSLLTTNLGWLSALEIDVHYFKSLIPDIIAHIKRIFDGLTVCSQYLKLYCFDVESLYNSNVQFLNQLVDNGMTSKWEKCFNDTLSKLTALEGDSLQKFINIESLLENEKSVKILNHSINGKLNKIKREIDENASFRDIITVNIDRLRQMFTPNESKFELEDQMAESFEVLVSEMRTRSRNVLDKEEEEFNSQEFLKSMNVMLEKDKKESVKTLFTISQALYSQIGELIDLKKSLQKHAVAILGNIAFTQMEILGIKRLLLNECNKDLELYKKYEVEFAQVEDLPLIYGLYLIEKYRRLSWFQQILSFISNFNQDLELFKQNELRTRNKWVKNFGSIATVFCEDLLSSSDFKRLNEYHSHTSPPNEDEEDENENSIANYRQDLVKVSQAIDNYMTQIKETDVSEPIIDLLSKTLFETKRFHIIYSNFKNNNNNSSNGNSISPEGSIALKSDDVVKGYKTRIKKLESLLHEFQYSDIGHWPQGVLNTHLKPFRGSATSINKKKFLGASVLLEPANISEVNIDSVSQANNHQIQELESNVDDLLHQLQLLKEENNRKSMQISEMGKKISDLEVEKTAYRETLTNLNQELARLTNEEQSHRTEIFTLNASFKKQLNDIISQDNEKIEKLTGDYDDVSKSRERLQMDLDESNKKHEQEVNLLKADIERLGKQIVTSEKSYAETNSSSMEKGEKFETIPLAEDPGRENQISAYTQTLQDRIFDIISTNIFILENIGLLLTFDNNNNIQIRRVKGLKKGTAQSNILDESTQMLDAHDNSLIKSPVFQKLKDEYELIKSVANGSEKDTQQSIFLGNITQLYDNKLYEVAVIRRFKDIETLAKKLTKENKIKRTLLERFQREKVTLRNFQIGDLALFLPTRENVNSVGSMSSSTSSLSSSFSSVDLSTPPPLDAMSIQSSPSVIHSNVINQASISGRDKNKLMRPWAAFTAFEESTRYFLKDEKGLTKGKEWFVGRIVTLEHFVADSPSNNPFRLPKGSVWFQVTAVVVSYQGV


Tests used:
mCherry-Atg11 = biological target: T1, mCherry-Atg11; experiment: pull-down
Atg2-mEGFP = Atg2-mEGFP (yeast (S. cerevisiae), UniProt P53855 1-1592); experiment: pull-down
Chain of Atg2-mEGFP (P53855 whole entry): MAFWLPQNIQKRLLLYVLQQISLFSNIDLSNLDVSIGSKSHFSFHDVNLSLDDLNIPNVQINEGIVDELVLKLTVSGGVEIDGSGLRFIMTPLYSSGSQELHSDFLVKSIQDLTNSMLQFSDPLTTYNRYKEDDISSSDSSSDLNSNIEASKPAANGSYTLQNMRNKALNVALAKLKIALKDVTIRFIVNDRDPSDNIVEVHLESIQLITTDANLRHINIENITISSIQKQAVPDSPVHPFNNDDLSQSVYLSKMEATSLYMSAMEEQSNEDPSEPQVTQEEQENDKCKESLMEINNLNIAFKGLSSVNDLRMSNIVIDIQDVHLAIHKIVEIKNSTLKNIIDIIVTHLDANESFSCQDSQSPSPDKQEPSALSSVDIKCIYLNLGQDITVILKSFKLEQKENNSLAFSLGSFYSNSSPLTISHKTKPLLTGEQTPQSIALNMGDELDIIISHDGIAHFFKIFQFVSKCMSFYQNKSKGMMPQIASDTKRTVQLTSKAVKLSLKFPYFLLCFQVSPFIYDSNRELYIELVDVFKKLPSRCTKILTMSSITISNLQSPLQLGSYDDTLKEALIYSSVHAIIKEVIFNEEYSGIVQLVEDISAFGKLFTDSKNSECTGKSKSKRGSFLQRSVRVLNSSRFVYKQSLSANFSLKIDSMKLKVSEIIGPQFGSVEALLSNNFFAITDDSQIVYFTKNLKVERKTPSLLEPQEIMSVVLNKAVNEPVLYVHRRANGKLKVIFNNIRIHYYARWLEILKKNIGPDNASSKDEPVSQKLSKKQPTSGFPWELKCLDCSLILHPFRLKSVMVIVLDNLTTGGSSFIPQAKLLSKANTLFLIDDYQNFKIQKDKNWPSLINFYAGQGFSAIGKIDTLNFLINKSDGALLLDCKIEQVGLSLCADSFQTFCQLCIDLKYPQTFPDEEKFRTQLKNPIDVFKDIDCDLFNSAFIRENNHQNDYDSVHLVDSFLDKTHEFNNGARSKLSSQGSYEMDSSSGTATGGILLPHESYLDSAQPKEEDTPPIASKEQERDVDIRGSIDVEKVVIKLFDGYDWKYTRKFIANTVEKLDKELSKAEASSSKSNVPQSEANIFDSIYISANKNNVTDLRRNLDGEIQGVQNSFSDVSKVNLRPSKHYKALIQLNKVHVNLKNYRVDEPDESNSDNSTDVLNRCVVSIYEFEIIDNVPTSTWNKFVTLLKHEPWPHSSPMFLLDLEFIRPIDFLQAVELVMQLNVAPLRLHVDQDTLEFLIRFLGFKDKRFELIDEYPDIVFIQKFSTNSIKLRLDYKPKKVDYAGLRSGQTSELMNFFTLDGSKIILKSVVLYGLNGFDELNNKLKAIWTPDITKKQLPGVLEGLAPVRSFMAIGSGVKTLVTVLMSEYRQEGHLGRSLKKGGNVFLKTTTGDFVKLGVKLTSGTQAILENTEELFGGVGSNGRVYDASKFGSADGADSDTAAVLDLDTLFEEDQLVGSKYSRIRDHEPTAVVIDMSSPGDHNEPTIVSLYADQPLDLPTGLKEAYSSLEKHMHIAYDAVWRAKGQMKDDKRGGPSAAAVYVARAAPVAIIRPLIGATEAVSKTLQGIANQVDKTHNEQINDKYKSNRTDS

Row | binding result (mCherry-Atg11) | binding result (Atg2-mEGFP) | Binder
1 | binds | – | Atg9-EGFP in proteoliposomes (Atg9 PLs) (natural protein) MERDEYQLPNSHGKNTFLSRIFGLQSDEVNPSLNSQEMSNFPLPDIERGSSLLHSTNDSREDVDENDLRVPESDQGTSTEEEDEVDEEQVQAYAPQISDGLDGDHQLNSVTSKENVLETEKSNLERLVEGSTDDSVPKVGQLSSEEEEDNEFINNDGFDDDTPLFQKSKIHEFSSKKSNTIEDGKRPLFFRHILQNNRPQRDTQKLFTSSNAIHHDKDKSANNGPRNINGNQKHGTKYFGSATQPRFTGSPLNNTNRFTKLFPLRKPNLLSNISVLNNTPEDRINTLSVKERALWKWANVENLDIFLQDVYNYYLGNGFYCIILEKILNICTLLFVVFVSTYMGHCVDYSKLPTSHRVSDIIIDKCYSNSITGFTKFFLWMFYFFVILKIVQLYFDVQKLSELQNFYKYLLNISDDELQTLPWQNVIQQLMYLKDQNAMTANVVEVKAKNRIDAHDVANRIMRRENYLIALYNSDILNLSLPIPLFRTNVLTKTLEWNINLCVMGFVFNESGFIKQSILKPSQREFTREELQKRFMLAGFLNIILAPFLVTYFVLLYFFRYFNEYKTSPGSIGARQYTPIAEWKFREYNELYHIFKKRISLSTTLANKYVDQFPKEKTNLFLKFVSFICGSFVAILAFLTVFDPENFLNFEITSDRSVIFYITILGAIWSVSRNTITQEYHVFDPEETLKELYEYTHYLPKEWEGRYHKEEIKLEFCKLYNLRIVILLRELTSLMITPFVLWFSLPSSAGRIVDFFRENSEYVDGLGYVCKYAMFNMKNIDGEDTHSMDEDSLTKKIAVNGSHTLNSKRRSKFTAEDHSDKDLANNKMLQSYVYFMDDYSNSENLTGKYQLPAKKGYPNNEGDSFLNNKYSWRKQFQPGQKPELFRIGKHALGPGHNISPAIYSTRNPGKNWDNNNNGDDIKNGTNNATAKNDDNNGNNDHEYVLTESFLDSGAFPNHDVIDHNKMLNSNYNGNGILNKGGVLGLVKEYYKKSDVGR
2 | binds | – | Atg19-3D (S390D, S391D, S396D) (natural protein) MNNSKTNQQMNTSMGYPLTVYDECNKFQLIVPTLDANIMLWCIGQLSLLNDSNGCKHLFWQPNDKSNVRILLNNYDYGHLFKYLQCQRKCSVYIGEGTLKKYNLTISTSFDNFLDLTPSEEKESLCREDAHEDPVSPKAGSEEEISPNSTSNVVVSRECLDNFMKQLLKLEESLNKLELEQKVTNKEPNHRISGTIDIPEDRSELVNFFTELKTVKQLEDVFQRYHDYERLSQECDSKTEIASDHSKKETKIEVEPPNERSLQITMNQRDNSLYFQLFNNTNSVLAGNCKLKFTDAGDKPTTQIIDMGPHEIGIKEYKEYRYFPYALDLEAGSTIEIENQYGEVIFLGKYGSSPMINLRPPSRLSAESLQASQEPFYSFQIDTLPELDDDDIISTDISLSYDGDDNEKALTWEEL
3 | – | binds | Atg5-mCherry-Atg16(1-46) (complex) chain 1: MNDIKQLLWNGELNVLVSIDPSFLMKGSPREIAVLRIRVPRETYLVNYMPLIWNKIKSFLSFDPLTDSEKYFWFEHNKTPIPWNYPVGVLFDCLAGKSATFTTSFENQVKDVLTFLRIHLVMGDSLPPTIIPIASSKTQAEKFWFHQWKQVCFILNGSSKAIMSLSVNEARKFWGSVITRNFQDFIEISNKISSSRPRHIPLIIQTSRTSGTFRISQPTISMTGVNPTLKDIEGDILDVKEGINGNDVMVICQGIEIPWHMLLYDLYSKLRSFDGFLYITLVPIKGGDKASSEL chain 2: MGNFIITERKKAKEERSNPQTDSMDDLLIRRLTDRNDKEAHLNELF

From publication PMC7610778 (Science (New York, N.Y.), 2020)
